Measurements published in the DeepSol protein solubility set.

experiment: soluble on expression in E. coli; label from the status in PepcDB or PDB records

Sequence | soluble on expression in E. coli
MSLSYKKIAIITGANSGFGKEFLKLLINEEEITEIWAVARNKARLNQLVDEFGSKVKIFSKDLSKIEEVKEIGTFLSKENVCIKYLINNAGFAKFCSYNDLSIDESINMIDLNISAVVALGLICIPYMQKGSHIMNISSQASFQPLPYQNIYSSTKAFIRNYTRALNVELKSKGINAIAVCPGWMSTNLFKRGIVVAEKGTKNFPGIVSPDVVAKKALKDAKKNKDISVYGINTKSSHLLAKLLPQKMMMKVWLMQQHIKEGHHHHHH | soluble
MGSDKIHHHHHHMMKMQVVIASGKGGVGKSSITASLLYLLKDEYKLIAVDADAEAPNLGLLLGVTEWEIEREHIGAKIARINPESCIRCGLCQMRCPYECIYVDEEGNYVVNELTCEGCNVCGLVCPVPGTITLEEVRSGIIRKATTKYGFPIISAQLDVGKPESGKLVTEEKEWASKIMKEEGLEHMIVDSAAGIGCQVIASVGGADVAILIAEPTPASLSDVQRVYKVVQHFREPAYLIINKADINPGFTKLREWAESEGIPILGEVPYDSSIPRSMSMLKPFVEAFPDSKASEAIRGIAERIKEEILKG | not soluble
MTSGTSVINDKVLQYETFISEVLRRDLQKVLEQRDAVYEKIAQYLQLKNTIQSIQESGSKELKTDVDLGCNFYVQAHVPDASRIYVAVGYGFFVEFTHAEALKFIEKKTNQLTEYTEVLTKDAAKIKANIRMVLEGLRELQGLKDLPEDRRREVF | not soluble
MSLDHRLLSINTATVRRQGDLATIIEACARAQIRAISPWRDQVAHIGLPRAVEAVKATGLALSGYCRGGMFPADPARLPEVRDDNRRAVDEAEALGASCLVLVVGGLPQYARPGSAPSKDIGAARAMVEDGIGTLLEYARSAHMPLAIEPLHPMYAADRACVNTMGQALDICDRLDPERSGMLGVALDVFHVWWDPDLSAQIVRAGRDRLLAYHVCDWLVPMADMLNDRGMMGDGVIDLKAIRAQVEAQGYQGFAEVEIFSEHWWAKPMEEVLGTCISRHRSVVEGHHHHHH | not soluble
MSLDAIEAEREVLIGFLQEFVRAASPNPPGDTRAAAAVIQGFLSARGVPNELLGPQESMPNVVSECEGGRAGPRLVYNGHMDVFPVGDGHGWTRDPWSGDIEEGRLHGRGTCDMKTGTAASVIAYAYLYARRAQLAGSVALTAVSDEETGGRWGTRWLLENDTRWRGDCVLNGEPSSLDTIRFSEKGTLRLKFEVLAAGAHGAYVHRSESPTRIAAALIGRLAEVEAIEPSLPAALKAHLQREDVRRALDVAMGEGAADVVTRTTLNVGVLNGGLKINMIPDRCVFEVDIRLPVGTEPDVVLARLEGILAEFPQASMEVQQWHSTPPNVCAHDHPMVDFIADNAQAIVGRRPVAVPSIGSTDCRYWRRSGVPAYVYGPAPGRMAMSNESVDLDEFIAVAKVHAAAGWDYLNGAAEGHHHHHH | not soluble
MKIYYLGPEGSYTEKAALKFAELTNLKITPAESIYSVFREVERGNYGVVPTENSIEGSVTLTLDLLLRFPVKIFGETSLEIKHALLGYDLSKIRVVLSHPQALAQCREFIQRMRWGVRETNSTAEAVKIVAESNDPTLAAIGSREAAEIYGLKVLAEDIQDYPNNKTRFILIGREDM | not soluble
MMDASKELQVLHIDFLNQDNAVSHHTWEFQTSSPVFRRGQVFHLRLVLNQPLQSYHQLKLEFSTGPNPSIAKHTLVVLDPRTPSDHYNWQATLQNESGKEVTVAVTSSPNAILGKYQLNVKTGNHILKSEENILYLLFNPWCKEDMVFMPDEDERKEYILNDTGCHYVGAARSIKCKPWNFGQFEKNVLDCCISLLTESSLKPTDRRDPVLVCRAMCAMMSFEKGQGVLIGNWTGDYEGGTAPYKWTGSAPILQQYYNTKQAVCFGQCWVFAGILTTVLRALGIPARSVTGFDSAHDTERNLTVDTYVNENGEKITSMTHDSVWNFHVWTDAWMKRPDLPKGYDGWQAVDATSQERSQGVFCCGPSPLTAIRKGDIFIVYDTRFVFSEVNGDRLIWLVKMVNGQEELHVISMETTSIGKNISTKAVGQDRRRDITYEYKYPEGSSEERQVMDHAFLLLSSEREHRRPVKENFLHMSVQSDDVLLGNSVNFTVILKRKTAALQNVNILGSFELQLYTGKKMAKLCDLNKTSQIQGQVSEVTLTLDSKTYINSLAILDDEPVIRGFIIAEIVESKEIMASEVFTSFQYPEFSIELPNTGRIGQLLVCNCIFKNTLAIPLTDVKFSLESLGISSLQTSDHGTVQPGETIQSQIKCTPIKTGPKKFIVKLSSKQVKEINAQKIVLITK | soluble
MSLTTIPIWDVQQTPELNISAADYSLLTDLYQLTMAACYTGEGVEQRRASFELFVRRSPEGFGYLIAMGLAQALEYLEKLRFSPEQIAALQATGIFAHAGEGFWSLLAEGRFTGDVWAVPEGTAVFANEPLLRVEAPLWQAQLVETYLLNTLNYQTLVATRAARLRDIAGEQATLLEFGTRRAFSPQASLWAARAALAGGLDATSNVLAALQLGQQPSGTMAHALVMALSAMEGSEEQAFSAFHRYFPGAPLLIDTYDTIAAAQHLAEKVNTGKMELSGVRLDSGDLVSLSKQVRSLLPDVSIFASGDLDEWEIAKLQAAGAEIDGYGLGTKLVTGSPVNGVYKLVEIDDIPVMKKSSGKTTYPGRKQIFRSFGDGQVQADRLGLITDTPLITEKPLLELVVKEGQRLQPRETLSAIRQRTAASVASLPEQTRRLDNPVPVPIQISTALQDLTEVTLQRLNEGHHHHHH | not soluble
MSLDKVYPIGSQYTINGFIIGDDTTENGYPITAKIEVVDTKNTISPKLIAHTIPLNNVKINGNNRLTSNRDLAIKEIISWDVSQQLYNYRDTYGLSTEGYTRSDGWDSPETKLKGHGSGHYMSALALAYAAATNPSHKEILRRNITRMVNELRECQERTFVWSEELGRYLEARDFAPEEELKKMKGTWEAFDEHKTKWATYGYGYLNAIPPHHPALIEMYRAYNNSDWVWAPYYSIHKQLAGLIDIATYMDDKSIADKALLIAKDMGLWVWNRMHYRTYVKKDGTQEERRTHPGNRYEMWNMYIAGEVGGMGESLARLSEMVSAPEEKARLIEASNCFDSPAFYEPLSKNIDDIRNRHANQHIPMIIGALRSYLSNNDTFYYHVSHNFWNLIQGRYRYSTGGVGNGEMFRQPYTQIVSMAMNGVSEGESHSNPHINETCCAYNLLKLTKDLNCFNPDDARYMDYYERTLYNQIIGSLHPEHYQTTYQYAVGLNASKPWGNETPQSTCCGGTGSENHVKYQEATYFVSDNTLWVALYMPTTLHWEEKNITLQQECLWPAKSSTIKVTAGEARFAMKLRVPYWATDGFDVKLNGISIATHYQPCSYAVIPTRQWKENDIVEITMPFTKHIDYGPDKLPAEIASKDGHQLETAWVGTLMHGPFAMTATDITNWTEATLNIDSRLASITVVEPNGPQTGTTGNLYTLMQGGRTFQPDYYRHDHTTHYFRINHIKDPTVELKMALSAKLRETTAFSKSHYTKASFAKLTTAIQEGEKLMKISPLTETTISTCVDNIDKAIESLVASRLDKSNLEASIHIAKKCNPDLYTTDSFKTLQATLESAHEVMDNIDLQTVIDKQTLSLQDATASLVLANNVDKTELKELLNIAMERQTNQEKWNALAVKIPEFAPWAHFGFTRLKRTLEHAQNVYFNKDKNYSQGEVNAIVASLNTVINTMRPGNLPEMEDLRPLSALLRRVGTIDDSTDPTLKDAVAFTEMVIKYVADGSGTHDMIETAISRLKSAAGEGHHHHHH | soluble
MGSDKIHHHHHHMNFLKKEPFKIFSMIYLLLDTITNRAGTERAVINLANNLHANGHRVSLVSVCTKEGEPSFQVEKGIEVHHLGIRLYGNALARKTVYFKAYRRIKALYKKREPVLLIGTNIFINTILSQISNRGRIFTIGCEHISYDIARPITKRIRGFLYSGLDAVVALTKRDQQSFEAILRGRSKAYVIPNQVSFTTVQRDATTHKQMLAIGRLTYQKGFEFMIEDASRVLRERPDWKLIIVGDGENESMLRKEIASRNMESQIEIHPSTPEIRKYYESSAIYLMTSRFEGLPMVLLEAEAYALPIISYDCPTGPRELIENGRNGFLVPMEAHEDFADKLRLLMDDETLRKKMGQESELMVKSYSPANIYECWKKLFVEIGYMN | not soluble
MGSDKIHHHHHHVLVLVLFTTVDRTPYKQMPYYTSMMKALDTFHVDVQHKKGDTLRAAWYKVALTPHTFPHPLAGYGLRKKAVSVNDTTFVRTFIFDNAKTRVAYVSLDLLIFPPALKDRVRAELETTYNLQVFLTATHTHSAPGGWEPKIAGRVLAGEYSDEYVALLFNAINECISKAIPRLQKVEQAYIRVSAPEAVQNRLKGADAPKDSFIRGIKFRNKSGEEACLFTFAAHANCLNSDVDYVSADYPGIVSAELEKRKWASFVSYAAGAVGSHAPTFETILDGKLRADTVSSILVEKLQETKAAYAYTNQLYYHRLPLFLRDAHLRVEKDIRIRPWVFNTILGKDIPDIQIIEIGETVLLGMPCDYSGELMPPLEKICADNQSNFMLSGFNGGYIGYITDDACYDWDRGETMDMNWFGPYNAAYLTEVNTVILKKVLTGE | not soluble
AIASFRTCHNWFPLCLLLKETNNDISGEGIYSSRSELFQQPLAKETQRWSTGPSFVKHYGRLKRHSLPAVHFFDNSQSFLQNLQPNETFPETTTLDWKELENATRLLNDFMESASEDGDSLFDDEFPTMHAKTKLQDGLSTHPQSPPSDITQSVLSNTQSPVPSMLSETELPDFGEDFVNANEELVS | soluble
MNTRIKPVRSFLFVPGNKESMLDKAAQAGADALILDLEDSVPSPEKTAARELVAKKIPELIAQNQRIWVRINRTAHIYDLDDILAVAPAGIEGIYISKPGGPEDVYMASCMIAEAEARANLPLGSIGLIPLLETARSMQLCYDIAQMPRVAGIVGATARNADMGRALKFVWTAEGRETEYLKSRVVMAARAAGKQAIGGLWQQIKDLDGLAKSSAFDRQLGMSGELVLHPMQVETINRTYTPTAEDVAYYQGMIEALDAAQAQGRASVMYEGEHIDIAHVKTAHEVIALAQSFGNLEHHHHHH | soluble
PLLIGGLYPKNLEDRILIKLDQAPPYLLDGLVAVEDRDFYHHFGVSPKSIARAIWVNTSQGQMRQGGSTLTQQLVKNFYLTNERSLSRKLTEAMMAVLLEIHYSKQEILEAYLNEVFVGQDGQRAVHGFGLASQYFFSQPLSELKIHQVAMLVGLVKGPSFY | not soluble
MKFFILSTTLLLIGVQCGYPVAQNSYPTPPPPSDSYVVPKQSYPTAPGAYATKHSFPQNSAPVTAPPLPPPPAPSGYSSDDASVTSNVAASPPAPPTDAQIVGSSSSSTNYGGSSPTYGGSLSSGGIVGGNSLNYGTYNSASAGTPAATGAGASSGYRRRAKAKARARARARTAPNRRLHQRRHLQPIRRFRFQKKAKQ | soluble
MHLDRQSLEKAKHLIQSGLIDTIEVGTIKGLQEIHRFLFEGLYEFAGKIRDKNIAKGNFRFANCLYLDLILPRIESMPQNNFNQIVEKYVEMNIAHPFLEGNGRATRIWLDLLLKKELKKIVLWDRIDKAAYLSAMERSPVNDLEIKTLLKKHLSSNTNDPLTLIKGITQSYYYEGL | soluble
MIYAAEEVRARFARRGLSFDPTVEEIVRGILEAVREEGDEALDRFSRDLDGYPVEEVPKRAWREAYEDLDEDLRDALETARERIEAFYREEARGGFLRAEGGGVLAQLVRPLERVGVYVPGGSAPLLSTLLMTVVPAKVAGVREVIVASPPKVHPGVLAAAWVAGADRLFAMGGAQAIAALAYGTGRVPRVDKIVGPGNRYVVAAKRLVYGTVGIDGLAGPTETMIIADGSASPRLLAADLLAQAEHGPDSEPWLLSPDRALLERVEAELSWQLQDLPRAEVARQALEKGGLVLTKDLEEAFALANLYAPEHLSLALSDPLPWLEKVQNAGGVFLGEGSPEALGDYIAGPSHVMPTSGTARFQGGLAVRDFLKVIPVVGLSEGAARELAKKGALLARAEGLEGHARSLDLRR | soluble
